Measurements as given in article PMC7018707, “FUS Recognizes G Quadruplex Structures Within Neuronal mRNAs”.

Molecular target: full-length FUS wild type (UniProt P35637 1-526)
Experiment: steady-state fluorescence (2-AP); 150 mM KCl, 5-fold excess BSA; Fluorescence: 10 mM cacodylic acid pH 6.5, 150 mM KCl, 23 C, 150 or 200 nM RNA, 5-fold excess BSA or HCV peptide; pull-down: 5 uM probe annealed in the same buffer, room temperature, RIPA lysate and washes; native PAGE 20%, RNA:peptide 1:1 to 1:3
Conditions: protein: recombinant, G quadruplex

full-length FUS wild type, sequence (P35637 whole entry): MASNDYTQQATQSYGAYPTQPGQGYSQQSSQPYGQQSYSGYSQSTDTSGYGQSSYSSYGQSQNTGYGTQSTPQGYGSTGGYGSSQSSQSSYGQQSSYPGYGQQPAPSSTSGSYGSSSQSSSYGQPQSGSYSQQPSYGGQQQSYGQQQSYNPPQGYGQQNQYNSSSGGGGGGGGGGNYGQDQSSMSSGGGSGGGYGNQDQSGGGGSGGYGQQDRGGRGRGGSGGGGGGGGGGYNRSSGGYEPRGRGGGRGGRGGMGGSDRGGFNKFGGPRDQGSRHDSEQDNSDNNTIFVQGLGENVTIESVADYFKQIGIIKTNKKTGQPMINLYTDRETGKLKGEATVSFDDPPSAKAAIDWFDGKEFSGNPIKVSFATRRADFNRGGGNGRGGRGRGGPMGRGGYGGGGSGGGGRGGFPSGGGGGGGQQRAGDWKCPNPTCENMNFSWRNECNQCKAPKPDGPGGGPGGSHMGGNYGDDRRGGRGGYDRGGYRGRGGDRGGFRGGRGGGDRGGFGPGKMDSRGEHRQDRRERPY

Row | Binder | Kd (label: 2-AP at position 18) | Kd (label: 2-AP at position 4)
1 | GGGGUUGGGGAGGGUGUAGGGGGUGGGG (structured_RNA, A18 replaced by 2-aminopurine) [Shank1a GQ 2-AP] | 88 ± 27 nM | 
2 | GGGAGGGAGGGUGGG (structured_RNA, A4 replaced by 2-aminopurine) [PSD-95 GQ2 2-AP] |  | 28 ± 10 nM
